The source of these data is article PMC6900781.

B1: HA-dCENP-C(1264-1411) [Drosophila melanogaster] / GFP-LacI-dCENP-C [Drosophila melanogaster] (parent)
chain 1: GPVVFSTPLRDEQEEASTKLMQWLRGVGDAPPSASMSDENASVSSANELIFCQVDGIDYAFYNTKEKAMLGYMRFKPYQKRSMKQAKVHPLKLLVQFGEFNVETLAVGEEKEVHSVLRVGDMIEIDRGTRYSIQNAIDKVSVLMCIRS
chain 2: MSKPQNNDTLELDDILSQPVKDKERFAAFMMRKLAENKPAQNDNLFGNFKLDFDLDFEVPLIKKSQAKPKSKLPEVQPLGELVSKNSAATEKVNEPPVDQAPNENVPPRRSPTLSPNNRRSMRRSGNVPGSDKLRRHAIRRRSRSCGRQLLPEFEETVNLTRSISSPVNFLPEISSTPCTEKQKEEVAKNTTRVETDKPAEKPMELSQEPEPENPLQTKVTSPARNPILAAEIEQICKERQSSFHKNVLQLDYSGRAPYSRPPTPSSPSVAGLRRTYTMEKGPAPGQLLLSPSHRYDTPSKMPVVKAKRFNQELMVPDTPERQSHDPAWQSEPQPEFVVPETQPQDLGELVQTLSRSAISPIVVINTSNSNRSVRRDAVAMKSVPTSPVTALSSPPIAPSPRRSAAASPQKSIAQLPRVEENMDAIMTDDESDEHPSTVPLNLAPSGGNTTRQRRLRSSNRARATIESQESSMRLLNLHKSVNAKKSKPRKTAIPLNKAPSAPINGEQFARELTRMSNYEILDLRKRNSLNEIYPLNGHRNHRSEKLILEEEIQRELLRRNLMDEAEGLPKQQSSDDSNEDYIPVPPKTQSLRTKSNDRSQGRGRPRSTRRDLPMTTELVNYLGLSQTLETRRKSSKDGKRCLYTKGSSDHEDNDSLSPVKLPRLSKSIQIVPPPPVSLRYSQSLQNLPCSGKFDFDNVVMAAPPDFHDSVNSDAIEIAPPPPEYVVNTRGRSTSGRKSNKNDLVLPPPGYEGGQEEEHDERPSQPRCTAKELQQSTQNGRRAMENELVPPPIEYVEEENRNNEQSRRSTKNGNLVDRNTHNAVEYCEPPEPPEYDDSDHGQASILRRSGKKLQHSKQSVQKSNKEQIIAPSYENNEDYDSDEEPIYNEEYGKEESQNKNVTRRKSDKDEMASHTLECIEGPDPNWNSSCNKQNRNHQNASKSKENDKLANRSSKSQKLSNPRQNAVGTEKSVALSNRGEECTEKSSDVMESLRVNTPTPPIDQNSDDVPSRNPSPSRTLLSDDVPSTSRAALEFLQRSQNMSKSRPPDESSADVVFKKPLAPAPRAKSKKGKSEVDKLKLAKMPVEAEELNTTGIRRSKRGQVPLQMSWCHTMDPSKFNFMSGFIEPRSKNSKTKKGNLSKAKKASATKPKPTVEKNLPDNRGPLCSSTPRISEKLPGAIPHSESLGLSTLTWEETEVQAEAEKVPKKRGRPKKAVGGVQTDTEAEPEPEPEPMISSVAPLTSDQEEPDVPDEQAPYTEAALGPVVFSTPLRDEQEEASTKLMQWLRGVGDAPPSASMSDENASVSSANELIFCQVDGIDYAFYNTKEKAMLGYMRFKPYQKRSMKQAKVHPLKLLVQFGEFNVETLAVGEEKEVHSVLRVGDMIEIDRGTRYSIQNAIDKVSVLMCIRS
B2: HA-dCENP-C(1264-1411) [Drosophila melanogaster] / CAL1-GFP-LacI [Drosophila melanogaster] (parent)
chain 1: B1 chain 1
chain 2: MANAVVDEETLEAMVYERSKAWSSKMADFASLEDGMEIDVAEFDNLFHGEDEDPDLDDVAKEAVEDNVPDEAKLEMGHINATSVTELTLILCANEDNEAKAEIEEILNQTVPVVEEHKRKWREAGLDRILDTFDEKQIEHHVGRWMRRHNSVYLEASPPKYLPPHHNSISDESDESMHSIDTARYIQQSRRRNAHMTNKNMTTIKMYRKHSHKRDELRAKYAYGDEQEHRHHMQAVLLRRRERERQLAYLASTPMQCVYSSGHHMRRKNLRKRRINSWMFDSASSSEEDTSFGGCDCHSCRRHYALSRSVYQSCPYGRGQREYHHRQMASRTMHTMRRQHTFDMEMDLRPRLPENECSCCNSDRLCSNVIHIANSSTEEWVVENRSNHLTQETQEKTRKQKHQPMDARKVSHQPVCSKGHEQKPLSSKATSVSKLVLSKEKYMQMFDSESSDEDNALAKKGLLCCSDKKKGMTFPTPNAAGKITHPTSSAKKAIRKEARPNGLAQIQEEGPTATNSPIESTYLPVAHMKSVSIDGSSGTSATFESPAKKAPKRGIRETSPLNGNELQQLISTIPIADEKASSLMEKVDNCIGRESFDDRNKDFMHMENSSTKTAVEKSTKQKRVSGKKSEIPKSIITNNEILEKNSTETLSEKQVAAKAKKQSVRKTGATGKPSTSRLKKSEKTKTTSSVTSTSKLEQVREEESDVSSEVLAKPKPQCSTTASILKQGGDGASNSEDDLQIALAMSKATYKEEQQKRKKTKREPSNKQPQSPAEKSMTVFNNQSVACNSTALANDTACYRVLPKRRGVKRAAAVSTTEEKTATNSSSSPTSSLEEMGSPTGGDPDCTVVTSTTGCEPPASERQEIPATIKITKRGILLHSPSAPEGASFTLTEQGLGKIIGERWARKYLKYHIGSRSFDSRHSVYYQPTPQLAAALSAPQDAQNIGNISGSSASDDDIFEQINRYGTVYSILENNSGDK

The first experiment covers variants of B1. In words: LacO-tethering recruitment assay (HA immunofluorescence intensity at LacO). As to conditions: with GFP-LacI-dCENP-C [Drosophila melanogaster]; parent: 1.6; read off a plot.
Turning to chain 1 GPVVFSTPLRDEQEEASTKLMQWLRGVGDAPPSASMSDENASVSSANELIFCQVDGIDYAFYNTKEKAMLGYMRFKPYQKRSMKQAKVHPLKLEVQFGEFNVETLAVGEEKEVHSVLRVGDMIEIDRGTRYSIQNAIDKVSVEMCIRS [chain 1 L94E L143E], the response (normalized to GFP) is -0.05.

The next experiment covers variants of B2. Described as above. As to conditions: with CAL1-GFP-LacI [Drosophila melanogaster]; parent: 0.68; read off a plot.
Consider chain 1 GPVVFSTPLRDEQEEASTKLMQWLRGVGDAPPSASMSDENASVSSANELIFCQVDGIDYAFYNTKEKAMLGYMRFKPYQKRSMKQAKVHPLKLEVQFGEFNVETLAVGEEKEVHSVLRVGDMIEIDRGTRYSIQNAIDKVSVEMCIRS [chain 1 L94E L143E], for which the response (normalized to GFP) was 0.12.
